Columns and labels:
Details in all cases: remark: other sources report otherwise
[1] = molecular target: T1, recombinant homotrimeric HA, A/Wisconsin/67/05 H3N2 (Influenza A virus A/Wisconsin/67/05 (H3N2)); experiment: trimeric HA microarray, transfection set 3
[2] = molecular target: T2, recombinant homotrimeric HA, A/Vietnam/1203/04 H5N1 (Influenza A virus A/Vietnam/1203/04 (H5N1)); experiment: trimeric HA microarray, transfection set 3
[3] = molecular target: T3, recombinant homotrimeric HA, A/duck/Yangzhou/02/05 H8N4 (Influenza A virus A/duck/Yangzhou/02/2005 (H8N4)); experiment: trimeric HA microarray, transfection set 3
[4] = molecular target: T4, recombinant homotrimeric HA, A/common magpie/Hong Kong/5052/07 H5N1 (Influenza A virus A/common magpie/Hong Kong/5052/07 (H5N1)); experiment: trimeric HA microarray, transfection set 3
[5] = molecular target: T5, recombinant homotrimeric HA, A/swine/Ontario/01911-2/99 H4N6 (Influenza A virus A/swine/Ontario/01911-2/99 (H4N6)); experiment: trimeric HA microarray, transfection set 3
[6] = molecular target: T6, recombinant homotrimeric HA, A/Egypt/3300-NAMRU3/08 H5N1 (Influenza A virus A/Egypt/3300-NAMRU3/08 (H5N1)); experiment: trimeric HA microarray, transfection set 3
[7] = molecular target: T7, recombinant homotrimeric HA, A/Japan/305/57 H2N2 (Influenza A virus A/Japan/305/57 (H2N2)); experiment: trimeric HA microarray, transfection set 3
[8] = molecular target: recombinant soluble homotrimeric HA of A/chicken/Vietnam/NCVD-016/08 (H5N1) (Influenza A virus A/chicken/Vietnam/NCVD-016/08 (H5N1)); experiment: microarray, BCC supernatant IgG, trimeric HA
[9] = molecular target: recombinant soluble homotrimeric HA of A/Japan/305/57 (H2N2) (Influenza A virus A/Japan/305/57 (H2N2)); experiment: microarray, BCC supernatant IgG, trimeric HA
[10] = molecular target: recombinant soluble homotrimeric HA of A/California/4/09 (H1N1) (Influenza A virus A/California/4/09 (H1N1)); experiment: microarray, BCC supernatant IgG, trimeric HA
[11] = molecular target: T1, recombinant homotrimeric HA, …; experiment: trimeric HA microarray, transfection set 4
[12] = molecular target: T2, recombinant homotrimeric HA, …; experiment: trimeric HA microarray, transfection set 4
[13] = molecular target: recombinant homotrimeric HA, A/Hong Kong/2108/03 H9N2 (Influenza A virus A/Hong Kong/2108/03 (H9N2)); experiment: trimeric HA microarray, transfection set 4
[14] = molecular target: T3, recombinant homotrimeric HA, …; experiment: trimeric HA microarray, transfection set 4
[15] = molecular target: T8, recombinant homotrimeric HA, A/California/4/09 H1N1 (Influenza A virus A/California/4/09 (H1N1)); experiment: trimeric HA microarray, transfection set 4
[16] = molecular target: T4, recombinant homotrimeric HA, A/common …; experiment: trimeric HA microarray, transfection set 4
[17] = molecular target: T9, recombinant homotrimeric HA, A/South Carolina/1/18 H1N1 (Influenza A virus A/South Carolina/1/18 (H1N1)); experiment: trimeric HA microarray, transfection set 4
[18] = molecular target: T10, recombinant homotrimeric HA, A/Indonesia/5/05 H5N1 (Influenza A virus A/Indonesia/5/05 (H5N1)); experiment: trimeric HA microarray, transfection set 4
[19] = molecular target: recombinant homotrimeric HA, A/northern shoveler/California/HKWF115/07 (Influenza A virus A/northern shoveler/California/HKWF115/2007 (H6N1)); experiment: trimeric HA microarray, transfection set 4
[20] = molecular target: T6, recombinant homotrimeric HA, …; experiment: trimeric HA microarray, transfection set 4
[21] = molecular target: recombinant homotrimeric HA, A/chicken/Vietnam/NCVD-016/08 H5N1 (Influenza A virus A/chicken/Vietnam/NCVD-016/08 (H5N1)); experiment: trimeric HA microarray, transfection set 4
[22] = molecular target: T7, recombinant homotrimeric HA, …; experiment: trimeric HA microarray, transfection set 4
[23] = molecular target: recombinant homotrimeric HA, A/Hong Kong/1073/99 H9N2 (Influenza A virus A/Hong Kong/1073/99 (H9N2)); experiment: trimeric HA microarray, transfection set 4
[24] = molecular target: T11, recombinant homotrimeric HA, A/Solomon Islands/3/06 H1N1 (Influenza A virus A/Solomon Islands/3/06 (H1N1)); experiment: trimeric HA microarray, transfection set 4
[25] = molecular target: T5, recombinant homotrimeric HA, …; experiment: trimeric HA microarray, transfection set 4
[26] = molecular target: recombinant soluble homotrimeric HA of A/Hong Kong/1073/99 - H9N2 (Influenza A virus A/Hong Kong/1073/99 (H9N2)); experiment: micro-array; captured IgG, V5-tagged trimeric HA
[27] = molecular target: recombinant soluble homotrimeric HA of A/duck/Yangzhou/02/05 (H8N4) (Influenza A virus A/duck/Yangzhou/02/2005 (H8N4)); experiment: microarray, BCC supernatant IgG, trimeric HA
[28] = molecular target: recombinant soluble homotrimeric HA of A/Egypt/3300-NAMRU3/08 - H5N1 (Influenza A virus A/Egypt/3300-NAMRU3/2008 (H5N1)); experiment: micro-array; captured IgG, V5-tagged trimeric HA
[29] = molecular target: T1, recombinant homotrimeric HA, …; experiment: trimeric HA microarray, transfection set 5
[30] = molecular target: T9, recombinant homotrimeric HA, A/South …; experiment: trimeric HA microarray, transfection set 5
[31] = molecular target: T5, recombinant homotrimeric HA, …; experiment: trimeric HA microarray, transfection set 5
[32] = molecular target: T7, recombinant homotrimeric HA, …; experiment: trimeric HA microarray, transfection set 5
[33] = molecular target: T11, recombinant homotrimeric HA, A/Solomon …; experiment: trimeric HA microarray, transfection set 5
[34] = molecular target: recombinant soluble homotrimeric HA of A/swine/Ontario/01911-2/99 (H4N6) (Influenza A virus A/swine/Ontario/01911-2/99 (H4N6)); experiment: microarray, BCC supernatant IgG, trimeric HA
[35] = molecular target: T8, recombinant homotrimeric HA, …; experiment: trimeric HA microarray, transfection set 5
[36] = molecular target: T10, recombinant homotrimeric HA, …; experiment: trimeric HA microarray, transfection set 5

B1: TCN-531 (5091_H13) (antibody, V domains shown)
VH: EVQLVESGGDLVQPGRSLKLSCTGSGFTFGDYGVTWVRQAPGKGLEWVGFIRTRPWGGTADTAASVKGRFTISRDDSKSLAYLQMNSLKTEDTAVYYCCRDAPPNVEVASMTNWYFDLWGRGTLVTVSS
VL: DIQLTQSPSSLSASVGDRVTITCRASQGILNCLAWYQQKPGKVPNLLMYAASTLQSGVPSRFSGSGFGTDFTLTISSLQPEDVATYYCQTYGGVSTFGGGTKVEIR
Trimeric HA Binding RLU [1]: 4160 RLU | Trimeric HA Binding RLU [2]: 2410 RLU | Trimeric HA Binding RLU [3]: 3220 RLU | Trimeric HA Binding RLU [4]: 37 RLU | Trimeric HA Binding RLU [5]: 296 RLU | Trimeric HA Binding RLU [6]: 363 RLU | Trimeric HA Binding RLU [7]: 489 RLU | Trimeric HA Binding: RLU [8]: 20800 RLU | Trimeric HA Binding: RLU [9]: 410 RLU | Trimeric HA Binding: RLU [10]: 22200 RLU

B2: TCN-535 (5246_P19) (antibody, V domains shown)
VH: QVQLVQSGSEVKKPGTSVKVSCTASGSVFTNYGISWVRQAPGQGLEWMGGIIPLFGAAKYAQKFQGRVTITADESTKTVYMELSRLTSKDTAIYFCAKAPRVYEYYFDQWGQGTPVTVSS
VL: EIVLTQSPGTLSLSPGERATLSCRASQSVSSSQLAWYQQKPGQAPRLIIYGASTRATGIPDRFSGSGSGTDFTLTIGRLEPEDFAVFFCQQYSTSPPTFGQGTKVDFK
Trimeric HA Binding RLU [11]: 4450 RLU | Trimeric HA Binding RLU [12]: 25200 RLU | Trimeric HA Binding RLU [13]: 18 RLU | Trimeric HA Binding RLU [14]: 428 RLU | Trimeric HA Binding RLU [15]: 25200 RLU | Trimeric HA Binding RLU [16]: 477 RLU | Trimeric HA Binding RLU [17]: 22400 RLU | Trimeric HA Binding RLU [18]: 18200 RLU | Trimeric HA Binding RLU [19]: 18100 RLU | Trimeric HA Binding RLU [20]: 25300 RLU | Trimeric HA Binding RLU [21]: 20900 RLU | Trimeric HA Binding RLU [22]: 21500 RLU | Trimeric HA Binding RLU [23]: 21200 RLU | Trimeric HA Binding RLU [24]: 836 RLU

B3: TCN-536 (5095_N01) (antibody, V domains shown)
VH: QVQLQQWGAGLLKPSETLSLTCAVYGGSFSVSGYYWSWIRQPPGRGLEWIGEISHGGSTNYNPSLKSRVTISVDTTKNQFSLRLSSVTAADTAVYYCARGTDPDTEVYCRVGNCAAFDYWGQGSLVTVSS
VL: EIILAQSPGTLSLSPGERATLSCRASQFVSTRSLAWYQQRPGQAPRLLIYGASSRATGIPDRFSGSGSGTDFTLTISRLEPEDFAVYYCQHYGYSPRYAFGQGSKVEIK
Trimeric HA Binding RLU [11]: 20600 RLU | Trimeric HA Binding RLU [12]: 182 RLU | Trimeric HA Binding RLU [15]: 49 RLU | Trimeric HA Binding RLU [17]: 39 RLU | Trimeric HA Binding RLU [25]: 168 RLU | Trimeric HA Binding RLU [22]: 260 RLU | Trimeric HA Binding: RLU [26]: 115 RLU

B4: TCN-539 (5056_A08) (antibody, V domains shown)
VH: QVQLVESGGGVVQPGRSLRLSCAASEITFITYAMHWVRQAPGKGLEWVALISDDGSNKFYADSVKGRFTISRDNSKNTLYLQMNSLRAEDTAAYYCAREGVYFDSGTYRGYFDYWGQETLVTVSS
VL: EIVLTQSPATLSLSPGERATLSCRASQSVSSYLAWYQQKPGQAPRLLIYDASNRATGIPARFSGSGSGTDFTLTISSLEPEDFAVYYCQQRSHWPPITFGQGTRLEIK
Trimeric HA Binding: RLU [27]: 1490 RLU | Trimeric HA Binding: RLU [28]: 24300 RLU | Trimeric HA Binding RLU [29]: 58800 RLU | Trimeric HA Binding RLU [30]: 5330 RLU | Trimeric HA Binding RLU [31]: 6510 RLU | Trimeric HA Binding RLU [32]: 2560 RLU | Trimeric HA Binding RLU [33]: 871 RLU

B5: TCN-555 (5246_L16) (antibody, V domains shown)
VH: QVQLVQSGAEVKRPGSSVKVSCTASGGIFRKNAISWVRQAPGQGLEWMGGIIAVFNTANYAQKFQNRVKITADESGNTAYMELSSLTSDDTAVYYCASHPKYFYGSGSYPDFWGQGTLVTVSS
VL: QSALTQPRSVSGSPGQSITISCTGGSSDIGASNSVSWYQQHPGKAPKLVIFDVTERPSGVPHRFSGSKSGNTASLTVSGLQPDDEADYFCCAYGGKYLVVFGGGTKVTVL
Trimeric HA Binding: RLU [34]: 1950 RLU | Trimeric HA Binding RLU [29]: 14700 RLU | Trimeric HA Binding RLU [35]: 20200 RLU | Trimeric HA Binding RLU [30]: 48000 RLU | Trimeric HA Binding RLU [36]: 33900 RLU | Trimeric HA Binding RLU [31]: 4520 RLU | Trimeric HA Binding RLU [32]: 16700 RLU | Trimeric HA Binding RLU [33]: 44600 RLU
